Results published in patent publication US20120108455A1.

Columns and labels:
[1] = target: FLAG-tag marker (Alpha Diagnostic Cat # FLAG15-R); assay: ELISA, 25% human serum in KRB, pH 6.0
[2] = target: FLAG-tag marker (Alpha Diagnostic Cat # FLAG15-R); assay: ELISA, 25% human serum in KRB, pH 7.4
[3] = target: Myc-tag marker (Alpha Diagnostic Cat # Myc15-R); assay: ELISA, 25% human serum in KRB, pH 6.0
[4] = target: Multifusion-tagged marker (Alpha Diagnostic Cat # MFPM20-C); assay: ELISA, 25% human serum in KRB, pH 7.4
[5] = target: Myc-tag marker (Alpha Diagnostic Cat # Myc15-R); assay: ELISA, 25% human serum in KRB, pH 7.4

| Substance | Kd [1] | Kd [2] | Kd [3] | Kd [4] | Kd [5] |
| --- | --- | --- | --- | --- | --- |
| anti-FLAG antibody (Abcam, ab1238) | 0.135 mg/L | 0.224 mg/L |  |  |  |
| anti-myc antibody (Abcam, #ab1326) |  |  | 0.00773 mg/L | 0.02 mg/L | 0.00798 mg/L |
